According to the RNAGym collection of RNA variant scans (doi:10.7554/elife.80360):

B1: CPEB3 Ribozyme (parent)
chain: GGGGGCCACAGCAGAAGCGUUCACGUCGCGGCCCCUGUCAGAUUCUGGUGAAUCUGCGAAUUCUGCUGU

Variants of: B1
Assay: self-cleavage, relative activity (ratio to wild type); higher = more cleavage; co-transcriptional

First: C54G C66A
Second: C54G C66G
The self-cleavage of the first is lower: 0.514 for the first, 0.533 for the second.

Compared with U53G U62G, U53A C63A is higher in self-cleavage: 0.558 for the first, 0.673 for the second.

Compared with G56C G58U, G56C G58C is lower in self-cleavage: 0.917 for the first, 0.907 for the second.

Compared with G56C G58A, U55G A59U is lower in self-cleavage: 0.76 for the first, 0.394 for the second.

First: A52G C54G
Second: C57G G68U
The self-cleavage of the first is higher: 0.861 for the first, 0.365 for the second.

Going from C57U G65U to G56U G65U, the self-cleavage rises from 0.375 to 0.468.

Compared with G56U G65A, A52G G65C is higher in self-cleavage: 0.47 for the first, 0.843 for the second.

Going from A52G G65U to C57G A59C, the self-cleavage falls from 0.894 to 0.3.

Going from U55G U62G to A60C G65U, the self-cleavage falls from 0.381 to 0.308.

Compared with A60C G65A, C57U U69C is higher in self-cleavage: 0.438 for the first, 0.554 for the second.

Going from G56A G68U to G56A G68C, the self-cleavage falls from 1.04 to 0.992.

First: C54G A59U
Second: C54G G58A
The self-cleavage of the first is lower: 0.47 for the first, 0.849 for the second.

First: A52G C57A
Second: U53G U55G
The self-cleavage of the first is lower: 0.343 for the first, 0.386 for the second.

Going from A59C C63G to A59C C63U, the self-cleavage rises from 0.316 to 0.633.

Compared with G56U U67A, G56U U67G is higher in self-cleavage: 0.943 for the first, 0.945 for the second.

Compared with G56U U67C, U55G U64G is lower in self-cleavage: 0.894 for the first, 0.491 for the second.

Going from G56U G68C to G56U G68A, the self-cleavage rises from 0.963 to 1.05.

Going from A59U U69G to A59U U69A, the self-cleavage falls from 0.903 to 0.901.

Compared with A52G U61A, A52G U61G is lower in self-cleavage: 0.89 for the first, 0.861 for the second.

Compared with G56U A60C, C57A G58C is higher in self-cleavage: 0.368 for the first, 0.397 for the second.

Compared with G58C U62G, G58U U61A is lower in self-cleavage: 0.965 for the first, 0.929 for the second.

First: C54G G65C
Second: C54A U69G
The self-cleavage of the first is lower: 0.503 for the first, 1.01 for the second.

Going from U55A G68C to G56U C66U, the self-cleavage falls from 1.01 to 0.872.

First: G56U C66G
Second: A60G
The self-cleavage of the first is lower: 0.552 for the first, 0.954 for the second.

First: A60C
Second: G56C G68C
The self-cleavage of the first is lower: 0.359 for the first, 0.907 for the second.

Going from U55A U69G to U53C C54U, the self-cleavage falls from 1 to 0.819.

Going from G56A U61G to G56A U61C, the self-cleavage falls from 0.676 to 0.617.

Compared with C54U U69A, C57U G68C is lower in self-cleavage: 1.04 for the first, 0.365 for the second.

Going from G56C A59C to G56C A59G, the self-cleavage rises from 0.403 to 0.705.

Compared with U53G C63U, U53G C63A is lower in self-cleavage: 0.849 for the first, 0.494 for the second.

Going from U53G C63G to U53C U69A, the self-cleavage rises from 0.523 to 0.977.

Compared with G58A, G58C is higher in self-cleavage: 0.965 for the first, 0.985 for the second.

First: G58U
Second: G58C U67G
The self-cleavage of the first is lower: 0.994 for the first, 1.01 for the second.

First: C54A G68U
Second: C54A G68C
The self-cleavage of the first is higher: 0.963 for the first, 0.942 for the second.

Compared with A52U U67A, C57G C63G is lower in self-cleavage: 0.978 for the first, 0.285 for the second.

Going from C57G C63U to C54G U61G, the self-cleavage rises from 0.356 to 0.436.

Going from C54G U61A to G56U C57A, the self-cleavage falls from 0.569 to 0.291.

Going from G56U C57U to G58A G68U, the self-cleavage rises from 0.322 to 0.962.

Going from G58A G68C to A59G G68C, the self-cleavage rises from 0.978 to 1.02.

First: U55A G65C
Second: U55A G65U
The self-cleavage of the first is higher: 0.491 for the first, 0.421 for the second.

Going from U53C G56U to U53G U67C, the self-cleavage rises from 0.399 to 0.901.

First: U53G U67A
Second: U53G U67G
The self-cleavage of the first is lower: 0.779 for the first, 0.894 for the second.

G56U U69G and C54U C63U are the same in self-cleavage: 1.02 for the first, 1.02 for the second.

First: A59C A60U
Second: U53C C63U
The self-cleavage of the first is lower: 0.378 for the first, 0.786 for the second.

Going from U53C G58U to G58U U69C, the self-cleavage rises from 0.965 to 1.06.

Compared with G58U U69A, U55G C66G is lower in self-cleavage: 1.02 for the first, 0.451 for the second.

Compared with A60C C66A, U55G U69C is higher in self-cleavage: 0.288 for the first, 0.962 for the second.

First: C54G G56U
Second: U53C U62C
The self-cleavage of the first is lower: 0.46 for the first, 0.513 for the second.

Compared with A59C G68C, U53A A60C is lower in self-cleavage: 0.909 for the first, 0.324 for the second.

Going from U53A A60G to U53A A60U, the self-cleavage falls from 0.777 to 0.35.

G58C A60U and U53A C57A are the same in self-cleavage: 0.402 for the first, 0.402 for the second.

Compared with C57A G65C, C57A G65U is lower in self-cleavage: 0.4 for the first, 0.399 for the second.

Going from A60C U64C to G56C U64G, the self-cleavage rises from 0.452 to 0.533.

Going from U55C G68A to C57U U61A, the self-cleavage falls from 0.961 to 0.406.

First: C54U U61C
Second: A60C C63A
The self-cleavage of the first is higher: 0.861 for the first, 0.405 for the second.

Going from A59C U64C to A60G G65C, the self-cleavage falls from 0.586 to 0.362.

First: C54A A60C
Second: A59U U67G
The self-cleavage of the first is lower: 0.272 for the first, 0.79 for the second.

First: A59U C63A
Second: A52U U61G
The self-cleavage of the first is lower: 0.377 for the first, 0.741 for the second.

Going from G58C U64G to A52G G58C, the self-cleavage rises from 0.893 to 0.972.

First: U55C G65U
Second: U55C G65A
The self-cleavage of the first is lower: 0.495 for the first, 0.588 for the second.

First: U55G A60G
Second: U55G A60U
The self-cleavage of the first is higher: 0.552 for the first, 0.291 for the second.

Going from G56A A59C to U53C C66U, the self-cleavage rises from 0.432 to 0.801.

Compared with U53C C66A, A52U G58A is higher in self-cleavage: 0.386 for the first, 0.939 for the second.

First: A60G G68A
Second: G58A G65C
The self-cleavage of the first is higher: 0.987 for the first, 0.619 for the second.

Going from G58A G65U to G56A G58C, the self-cleavage rises from 0.743 to 0.971.

Going from G56A G58A to U53G C57G, the self-cleavage falls from 0.905 to 0.403.

Going from C54A U64G to U53A C54A, the self-cleavage rises from 0.471 to 0.907.

Compared with U53A C54U, U55A U64A is lower in self-cleavage: 0.882 for the first, 0.532 for the second.

Compared with C54G U55A, C54G U55G is lower in self-cleavage: 0.745 for the first, 0.407 for the second.

Compared with U55G G68U, G56U U61C is lower in self-cleavage: 0.874 for the first, 0.383 for the second.

Compared with G56U U61G, G56C C63U is higher in self-cleavage: 0.548 for the first, 0.709 for the second.

Compared with G56C C63G, G56C C63A is higher in self-cleavage: 0.456 for the first, 0.47 for the second.

First: A52G U55C
Second: U55C U62A
The self-cleavage of the first is higher: 0.722 for the first, 0.445 for the second.

Going from U55C U62C to G56A C63A, the self-cleavage rises from 0.592 to 0.648.

First: G56A U64C
Second: G56A U64G
The self-cleavage of the first is lower: 0.777 for the first, 0.828 for the second.

First: A59C U62A
Second: U55A C63U
The self-cleavage of the first is lower: 0.406 for the first, 0.736 for the second.

First: U53G G68C
Second: U53G G68U
The self-cleavage of the first is lower: 0.882 for the first, 0.986 for the second.

C54A U67C and C54A U67G are the same in self-cleavage: 0.887 for the first, 0.887 for the second.

First: A52G G68U
Second: U55A G58A
The self-cleavage of the first is higher: 0.988 for the first, 0.927 for the second.

First: C57G C66U
Second: C57G C66G
The self-cleavage of the first is lower: 0.333 for the first, 0.39 for the second.

First: G58U A60C
Second: G58A U62A
The self-cleavage of the first is lower: 0.372 for the first, 0.939 for the second.

First: G58A U62G
Second: A59G U61G
The self-cleavage of the first is lower: 0.884 for the first, 0.941 for the second.

First: A59G U61A
Second: C57A U61A
The self-cleavage of the first is higher: 0.916 for the first, 0.428 for the second.

For C57A U61G, the self-cleavage was 0.402.
